Experimental data from US20050032689A1, “Methods for treatment or diagnosis of disease or disorders associated with an APB domain” (New York University, priority 1994, published 2005).
Entries after “also recorded” stand apart in the source; their conditions may differ.

What was measured:
[1] = system: HER2/neu (HER1/2 chimera); assay: Binding of GST-Shc fusion proteins to HER1/2 chimera from NIH 3T3 lysates, anti-phosphotyrosine blot; details: EGF-stimulated NIH 3T3 lysates
Experimental: (§1) FIGS. 4A, 4B, 4C and 4D. Binding of Shc fragments to growth factor receptors. A, schematic diagram illustrating the Shc fragments used in binding studies. Full length murine p52^shc is indicated in (i) while (ii)-(vi) were generated as GST fusion proteins for use in receptor binding studies. B, association of various GST fusion proteins with activated EGF receptor (EGFR). Binding was performed as in FIG. 2A with the exception that all lysates were stimulated with EGF. All studies used 3 μg of fusion proteins except for the Shc SH2 where 10 μg was used. Immunoblotting was performed with anti-phosphotyrosine. C, binding of Shc fusion proteins to NIH 3T3 cells expressing a HER1/2 chimera. This chimera consists of the EGF receptor extracellular binding domain and the intracellular region of HER2/neu. After stimulation of these cells with EGF (200 ng/ml) lysates were prepared and binding as well as blotting studies were performed as in B using anti-phosphotyrosine antibody. D, binding of Shc 1-209 to TrkA. Beads containing 10 μg of GST fusion proteins Shc 1-209, phospholipase C-γ (PLC-γ) SH2 (contains both N and C SH2 domains), or GST alone were added to lysates from 2×10^7 PC12 cells stimulated with 50 ng/ml nerve growth factor (lanes 1, 2, and 4). The binding of the same amount of lysate to 2 μg of anti-TrkA antibody is shown as a positive control and to indicate the position of TrkA on the blot (lane 3). Otherwise, the binding and blotting were performed as in B using anti-phosphotyrosine antibody. […] Protein concentration was determined by SDS-PAGE (polyacrylamide gel electrophoresis) using bovine serum albumin as a standard. […]

TrkA = target: T1, TrkA (Rattus norvegicus, UniProt P35739); assay: Binding of GST fusion proteins to TrkA from nerve growth factor stimulated PC12 cell lysates; details: 10 μg GST fusion protein, PC12 lysates stimulated with nerve growth factor
T1 construct: lysates from 2×10^7 PC12 cells stimulated with 50 ng/ml nerve growth factor; endogenous in cells; host or cells: PC12
Experimental: as §1, with “4).” for “4). The binding of the same amount of lysate to 2 μg of anti-TrkA antibody is shown as a positive control and to indicate the position of TrkA on the blot (lane 3). Otherwise, the binding and blotting were performed as in B using anti-phosphotyrosine antibody.”

T1 sequence (P35739 33-799): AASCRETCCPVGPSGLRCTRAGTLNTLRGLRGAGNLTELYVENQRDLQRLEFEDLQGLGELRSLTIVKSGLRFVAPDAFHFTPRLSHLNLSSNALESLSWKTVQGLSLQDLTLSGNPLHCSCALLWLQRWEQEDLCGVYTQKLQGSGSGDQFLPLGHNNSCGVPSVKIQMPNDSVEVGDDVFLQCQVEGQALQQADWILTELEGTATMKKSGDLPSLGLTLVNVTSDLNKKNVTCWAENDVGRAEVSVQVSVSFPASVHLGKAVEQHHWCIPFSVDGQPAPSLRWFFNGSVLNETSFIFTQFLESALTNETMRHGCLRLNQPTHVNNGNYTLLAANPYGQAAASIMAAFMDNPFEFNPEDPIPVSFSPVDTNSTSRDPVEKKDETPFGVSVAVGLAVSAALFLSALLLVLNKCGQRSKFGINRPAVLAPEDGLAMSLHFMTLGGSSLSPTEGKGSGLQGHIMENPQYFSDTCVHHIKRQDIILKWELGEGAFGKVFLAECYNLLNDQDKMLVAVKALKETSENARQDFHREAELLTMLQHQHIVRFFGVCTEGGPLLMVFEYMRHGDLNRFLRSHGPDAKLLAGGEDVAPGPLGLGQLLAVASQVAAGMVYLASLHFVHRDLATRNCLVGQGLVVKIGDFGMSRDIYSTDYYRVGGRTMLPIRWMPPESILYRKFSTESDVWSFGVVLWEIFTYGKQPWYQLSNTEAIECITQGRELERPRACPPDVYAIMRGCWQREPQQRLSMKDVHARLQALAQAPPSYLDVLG

binding to HER2/neu [1]: bound to HER2/neu
B1: Shc 1-209: Shc amino terminus, first 209 amino acids of murine p52Shc, generated as a GST fusion protein (protein, UniProt P98083 1-209, looked up, fragment)
chain: MDLLPPKPKYNPLRNESLSSLEEGASGSTPPEELPSPSASSLGPILPPLPGDDSPTTLCSFFPRMSNLKLANPAGGRLGPKGEPGKAAEDGEGSAGAALRDSGLLPLLQDMNKLSGGGGRRTRVEGGQLGGEEWTRHGSFVNKPTRGWLHPNDKVMGPGVSYLVRYMGCVEVLQSMRALDFNTRTQVTREAISLVCEAVPGAKGATRRR
modifications: GST fusion
notes: Shc amino terminus, first 209 amino acids of murine p52Shc, generated as a GST fusion protein
binding to TrkA (TrkA): bound to HER2/neu and TrkA; also recorded: bind in a similar fashion to that seen with the SH2 domain of phospholipase C-λ
